In the supplement of paper PMC11316812:
± gives the standard deviation of the averaged measurements.

What was measured:
MCF7 = test: percentage of EdU-negative (G0-arrested) nuclei per well, 72 h; higher = more G0 arrest; conditions: reference: sequence is the full UniProt precursor, the tested protein was the secreted form or ectodomain
hTERT-HMEC = test: as above; conditions: reference: sequence is the full UniProt precursor, the tested protein was the secreted form or ectodomain
[1] = protein concentration 0.0225 µM
[2] = protein concentration 0.0257143 µM
[3] = protein concentration 0.257143 µM
[4] = protein concentration 0.0065 µM
[5] = protein concentration 0.0205 µM
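Note: secreted proteins added to cultured cells, EdU pulse at the end, nuclei found by Hoechst imaging, EdU status from nuclear versus surrounding ring intensity ratio, PBS as neutral control.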

Row | Sequence | percentage of EdU-negative (MCF7; [1]) | percentage of EdU-negative (MCF7; protein concentration 0.225 µM) | percentage of EdU-negative (hTERT-HMEC; [1]) | percentage of EdU-negative (hTERT-HMEC; protein concentration 0.225 µM) | also measured
1 | MQQPFNYPYPQIYWVDSSASSPWAPPGTVLPCPTSVPRRPGQRRPPPPPPPPPLPPPPPPPPLPPLPLPPLKKRGNHSTGLCLLVMFFMVLVALVGLGLGMFQLFHLQKELAELRESTSQMHTASSLEKQIGHPSPPPEKKELRKVAHLTGKSNSRSMPLEWEDTYGIVLLSGVKYKKGGLVINETGLYFVYSKVYFRGQSCNNLPLSHKVYMRNSKYPQDLVMMEGKMMSYCTTGQMWARSSYLGAVFNLTSADHLYVNVSELSLVNFEESQTFFGLYKL | 25.2 ± 0.97% | 29 ± 2.4% | 4.44 ± 0.26% | 7.46 ± 2.2% | 
2 | MQLQASLSFLLILTLCLELRSELARDTIKDLLPNVCAFPMEKGPCQTYMTRWFFNFETGECELFAYGGCGGNSNNFLRKEKCEKFCKFT |  |  |  |  | percentage of EdU-negative (MCF7; [2]): 25.8 ± 1.5%; percentage of EdU-negative (MCF7; [3]): 24.81 ± 0.086%; percentage of EdU-negative (hTERT-HMEC; [2]): 4.34 ± 0.046%; percentage of EdU-negative (hTERT-HMEC; [3]): 4.94 ± 0.32%
3 | MAVVPLLLLGGLWSAVGASSLGVVTCGSVVKLLNTRHNVRLHSHDVRYGSGSGQQSVTGVTSVDDSNSYWRIRGKSATVCERGTPIKCGQPIRLTHVNTGRNLHSHHFTSPLSGNQEVSAFGEEGEGDYLDDWTVLCNGPYWVRDGEVRFKHSSTEVLLSVTGEQYGRPISGQKEVHGMAQPSQNNYWKAMEGIFMKPSELLKAEAHHAEL |  |  |  |  | percentage of EdU-negative (MCF7; [4]): 24.7 ± 0.39%; percentage of EdU-negative (MCF7; protein concentration 0.065 µM): 25.8 ± 1.1%; percentage of EdU-negative (hTERT-HMEC; [4]): 5.43 ± 0.74%; percentage of EdU-negative (hTERT-HMEC; protein concentration 0.065 µM): 7.72 ± 0.45%
4 | MPMASPQTLVLYLLVLAVTEAWGQEAVIPGCHLHPFNVTVRSDRQGTCQGSHVAQACVGHCESSAFPSRYSVLVASGYRHNITSVSQCCTISGLKKVKVQLQCVGSRREELEIFTARACQCDMCRLSRY [Q96T91] | 24.4 ± 0.81% | 22 ± 2.1% | 6.3 ± 1.5% | 4.45 ± 1.1% | 
5 | MARSPGRAYALLLLLICFNVGSGLHLQVLSTRNENKLLPKHPHLVRQKRAWITAPVALREGEDLSKKNPIAKIHSDLAEERGLKITYKYTGKGITEPPFGIFVFNKDTGELNVTSILDREETPFFLLTGYALDARGNNVEKPLELRIKVLDINDNEPVFTQDVFVGSVEELSAAHTLVMKINATDADEPNTLNSKISYRIVSLEPAYPPVFYLNKDTGEIYTTSVTLDREEHSSYTLTVEARDGNGEVTDKPVKQAQVQIRILDVNDNIPVVENKVLEGMVEENQVNVEVTRIKVFDADEIGSDNWLANFTFASGNEGGYFHIETDAQTNEGIVTLIKEVDYEEMKNLDFSVIVANKAAFHKSIRSKYKPTPIPIKVKVKNVKEGIHFKSSVISIYVSESMDRSSKGQIIGNFQAFDEDTGLPAHARYVKLEDRDNWISVDSVTSEIKLAKLPDFESRYVQNGTYTVKIVAISEDYPRKTITGTVLINVEDINDNCPTLIEPVQTICHDAEYVNVTAEDLDGHPNSGPFSFSVIDKPPGMAEKWKIARQESTSVLLQQSEKKLGRSEIQFLISDNQGFSCPEKQVLTLTVCECLHGSGCREAQHDSYVGLGPAAIALMILAFLLLLLVPLLLLMCHCGKGAKGFTPIPGTIEMLHPWNNEGAPPEDKVVPSFLPVDQGGSLVGRNGVGGMAKEATMKGSSSASIVKGQHEMSEMDGRWEEHRSLLSGRATQFTGATGAIMTTETTKTARATGASRDMAGAQAAAVALNEEFLRNYFTDKAASYTEEDENHTAKDCLLVYSQEETESLNASIGCCSFIEGELDDRFLDDLGLKFKTLAEVCLGQKIDINKEIEQRQKPATETSMNTASHSLCEQTMVNSENTYSSGSSFPVPKSLQEANAEKVTQEIVTERSVSSRQAQKVATPLPDPMASRNVIATETSYVTGSTMPPTTVILGPSQPQSLIVTERVYAPASTLVDQPYANEGTVVVTERVIQPHGGGSNPLEGTQHLQDVPYVMVRERESFLAPSSGVQPTLAMPNIAVGQNVTVTERVLAPASTLQSSYQIPTENSMTARNTTVSGAGVPGPLPDFGLEESGHSNSTITTSSTRVTKHSTVQHSYS [J3KSI6] | 25 ± 1.2% | 26.57 ± 0.18% | 4.92 ± 0.3% | 5.13 ± 0.22% | 
6 | MQCRLPRGLAGALLTLLCMGLLCLRYHLNLSPQRVQGTPELSQPNPGPPKLQLHDVFIAVKTTRAFHRLRLELLLDTWVSRTREQTFVFTDSPDKGLQERLGSHLVVTNCSAEHSHPALSCKMAAEFDTFLASGLRWFCHVDDDNYVNPRALLQLLRAFPLARDVYVGRPSLNRPIHASEPQPHNRTRLVQFWFATGGAGFCINRKLALKMAPWASGSRFMDTSALIRLPDDCTMGYIIECKLGGRLQPSPLFHSHLETLQLLRTAQLPEQVTLSYGVFEGKLNVIKLQGPFSPEEDPSRFRSLHCLLYPDTPWCPQLGAR | 25.3 ± 2.3% | 29.9 ± 2.4% | 5.18 ± 0.59% | 11.6 ± 0.88% | 
7 | MLPWTALGLALSLRLALARSGAERGPPASAPRGDLMFLLDSSASVSHYEFSRVREFVGQLVAPLPLGTGALRASLVHVGSRPYTEFPFGQHSSGEAAQDAVRASAQRMGDTHTGLALVYAKEQLFAEASGARPGVPKVLVWVTDGGSSDPVGPPMQELKDLGVTVFIVSTGRGNFLELSAAASAPAEKHLHFVDVDDLHIIVQELRGSILDAMRPQQLHATEITSSGFRLAWPPLLTADSGYYVLELVPSAQPGAARRQQLPGNATDWIWAGLDPDTDYDVALVPESNVRLLRPQILRVRTRPGEAGPGASGPESGAGPAPTQLAALPAPEEAGPERIVISHARPRSLRVSWAPALGSAAALGYHVQFGPLRGGEAQRVEVPAGRNCTTLQGLAPGTAYLVTVTAAFRSGRESALSAKACTPDGPRPRPRPVPRAPTPGTASREP [Q6PCB0] |  |  |  |  | percentage of EdU-negative (MCF7; [5]): 26.5 ± 2.2%; percentage of EdU-negative (MCF7; protein concentration 0.205 µM): 27.6 ± 0.87%; percentage of EdU-negative (hTERT-HMEC; [5]): 5.62 ± 0.91%; percentage of EdU-negative (hTERT-HMEC; protein concentration 0.205 µM): 5.75 ± 1.2%
